Experimental data from patent US20030130166A1, “Polynucleotide encoding a human junctional adhesion protein (JAM2)” (priority 1999, published 2003).
Bridges are numbered along the chain shown (N, C = ends). Where no end group is shown, it is not given here.

B1: JAM2-Fc (extracellular domain of human JAM2 fused to the constant region of mouse IgG-2a, secreted from Sf21 insect cells) (Fc fusion)
chain: FSAPKDQQVVTAVEYQEAILACKTPKKTVSSRLEWKKLGRSVSFVYYQQTLQGDFKNRAEMIDFNIRIKNVTRSDAGKYRCEVSAPSEQGQNLEEDTVTLEVLVAPAVPSCEVPSSALSGTVVELRCQDKEGNPAPEYTWFKDGIRLLENPRLGSQSTNSSYTMNTKTGTLQFNTVSKLDTGEYSCEARNSVGYRRCPGKRMQVDDLNIS
notes: In the assays it was captured on 96 well plates by goat anti-mouse IgG2a; also called recombinant JAM2; JAM2 extracellular domain; not shown: constant region of mouse IgG-2a (mIgG2a) from the modified pFastBac1 vector

Experiments:
[1] = biological target: T1, human JAM3 (Junctional Adhesion Molecule 3), endogenous on HSB T cells (human, UniProt Q9BX67 32-310); assay: adhesion of calcein-loaded HSB cells to captured JAM2-Fc in TBS+Ca/Mg/Mn (FIG. 7)
T1 construct: whole, on cells; also called cell surface JAM3; 43 kDa protein
T1 sequence (looked up): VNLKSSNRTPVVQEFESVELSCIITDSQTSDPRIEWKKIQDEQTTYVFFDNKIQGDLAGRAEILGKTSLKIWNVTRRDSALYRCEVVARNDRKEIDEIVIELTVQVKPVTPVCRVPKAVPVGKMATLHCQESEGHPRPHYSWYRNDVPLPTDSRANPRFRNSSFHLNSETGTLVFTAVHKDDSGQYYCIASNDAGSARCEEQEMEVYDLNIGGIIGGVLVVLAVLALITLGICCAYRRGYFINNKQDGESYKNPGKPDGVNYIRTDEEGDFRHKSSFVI
Method: In vitro adhesion assays were performed in 96 well plates essentially as described in Todderud, G., J. J. Leukoc. Biol. 52:85 (1992), herein incorporated by reference. Briefly, 50 μl of goat anti-mouse IgG2a was coated at 5 μg/ml in PBS and used to capture 4.8 pmoles of JAM2-Fc or mIgG2a (control). Various leukocyte cell lines i.e. T lymphocytes, HSB, HPB-ALL; B lymphocytes, RAMOS; monocytic cells, HL60, THP-1, and the erythroleukemic, K562 lines were labeled with calcein (Molecular Probes Inc., Eugene, Oreg.) at 50 μg/ml for 25 minutes at 37° C. with 250,000 cells/well in binding buffer that consisted of Tris buffered saline plus 1 mM each of CaCl₂, MgCl₂ and MnCl₂. Wells were washed 3×, lysed with 50 mM Tris (pH 7.5), 5 mM EDTA, 1% NP40, and fluorescence read in a Cytofluor with excitation at 485/20 nm and emission at 530/25 nm. Specific binding was calculated as fluorescence with JAM2-Fc minus fluorescence with mIgG2a. For antibody inhibition, protein captured on wells or HSB cells were incubated for 30 min at RT in binding buffer with 1:100×dilution of preimmune (normal mouse serum) or anti-JAM2 mouse polyclonal serum. […] Overall differences among experimental groups for each parameter were first assessed by one-way analysis of variance (ANOVA) and individual pairwise group comparisons were analyzed by Fisher's protected least significance difference (PLSD) post hoc test. […]

HPB-ALL = assay: In vitro adhesion assay, calcein loaded cells on captured Fc fusion protein; assay type: cell-based; conditions: binding buffer: TBS plus 1 mM calcium, magnesium and manganese; FIG. 7
Method: (§1) Biol. 52:85 (1992), herein incorporated by reference.
(§2) The capacity of JAM2 extracellular domain to adhere to various leukocyte cell lines according to a previously established in vitro binding assay performed under static conditions was next examined (see Todderud, G., J. Leukoc, Biol. 52:85(1992)). Calcein loaded cells were allowed to interact with JAM2-Fc captured in 96 well plates in binding buffer (hereinafter “BB”) which contained TBS plus 1 mM calcium, magnesium and manganese. Non-specific binding of cells to captured mIgG2a was determined simultaneously and subtracted. […] Binding to the erythroleukemic K562 cell lines was non-existent.

HSB cells = assay: as above; assay type: cell-based
Method: as §1, §2

K562 cell lines = assay: as above; assay type: cell-based; conditions: binding buffer: TBS plus 1 mM calcium, magnesium and manganese; FIG. 7
Method: as §1, §2

[2] = biological target: T1, human JAM3 (Junctional Adhesion …); assay: adhesion of calcein-loaded HSB cells to Fc fusion protein
[3] = biological target: B1; assay: the inventors' reading of the inhibition of HSB adhesion to captured JAM2-Fc by soluble JAM3 (FIG. 13A)
Method: (§3) JAM2-Fc adhesion to T cell lines was performed by capture of fusion protein by goat anti-mouse coated 96 well plates as described in Cunningham et al., J. Biol. Chem., 275:34750-34756 (2000). The HSB cells were loaded with calcien-AM (Molecular Probes Inc., Eugene Oreg.) and re-suspended in Tris Buffered Saline (TBS) with or without the addition of 1 mM MnCl₂. Binding to mouse IgG2a was used to subtract background. Soluble JAM3 was generated from a JAM3-Fc fusion that was digested with thrombin and purified to remove the Fc component. Neutralizing anti-JAM3 polyclonal serum was generated in mice using human JAM3 extracellular domain as immunogen. […] Following adhesion for 90 minutes at 37° C., wells were washed 3 times at room temperature. Adhered cells were lyzed and fluorescence quantified in a Cytofluor with excitation at 485/20 nm and emission at 530/25.
The inventors believe that soluble JAM3 ectodomain would bind to the JAM2 on the well surface and prevent its interaction with JAM3 on the HSB cell surface. It is concluded that under these conditions, that JAM2 is unable to engage α4 integrin. Therefore, a specific interaction of JAM2 with cell-surface bound JAM3 is necessary before JAM2 can bind α4 integrin. Likewise, if neutralizing anti-JAM3 antibodies are used to prevent JAM2 binding to cell surface JAM3, then JAM2 is also unable to engage integrin (FIG. 13B).

[4] = biological target: T2, α4β1 integrin, endogenous on HSB T cells (UniProt P13612 34-1032; P05556 21-798, limits assumed); assay: inhibition of Mn-enhanced adhesion of calcein-loaded HSB cells to captured JAM2-Fc (FIG. 12B)
T2 construct: whole, on cells; also called α4 integrin; alpha 4 integrin
T2 sequence (P13612 34-1032 limits assumed, chain 1 of 2): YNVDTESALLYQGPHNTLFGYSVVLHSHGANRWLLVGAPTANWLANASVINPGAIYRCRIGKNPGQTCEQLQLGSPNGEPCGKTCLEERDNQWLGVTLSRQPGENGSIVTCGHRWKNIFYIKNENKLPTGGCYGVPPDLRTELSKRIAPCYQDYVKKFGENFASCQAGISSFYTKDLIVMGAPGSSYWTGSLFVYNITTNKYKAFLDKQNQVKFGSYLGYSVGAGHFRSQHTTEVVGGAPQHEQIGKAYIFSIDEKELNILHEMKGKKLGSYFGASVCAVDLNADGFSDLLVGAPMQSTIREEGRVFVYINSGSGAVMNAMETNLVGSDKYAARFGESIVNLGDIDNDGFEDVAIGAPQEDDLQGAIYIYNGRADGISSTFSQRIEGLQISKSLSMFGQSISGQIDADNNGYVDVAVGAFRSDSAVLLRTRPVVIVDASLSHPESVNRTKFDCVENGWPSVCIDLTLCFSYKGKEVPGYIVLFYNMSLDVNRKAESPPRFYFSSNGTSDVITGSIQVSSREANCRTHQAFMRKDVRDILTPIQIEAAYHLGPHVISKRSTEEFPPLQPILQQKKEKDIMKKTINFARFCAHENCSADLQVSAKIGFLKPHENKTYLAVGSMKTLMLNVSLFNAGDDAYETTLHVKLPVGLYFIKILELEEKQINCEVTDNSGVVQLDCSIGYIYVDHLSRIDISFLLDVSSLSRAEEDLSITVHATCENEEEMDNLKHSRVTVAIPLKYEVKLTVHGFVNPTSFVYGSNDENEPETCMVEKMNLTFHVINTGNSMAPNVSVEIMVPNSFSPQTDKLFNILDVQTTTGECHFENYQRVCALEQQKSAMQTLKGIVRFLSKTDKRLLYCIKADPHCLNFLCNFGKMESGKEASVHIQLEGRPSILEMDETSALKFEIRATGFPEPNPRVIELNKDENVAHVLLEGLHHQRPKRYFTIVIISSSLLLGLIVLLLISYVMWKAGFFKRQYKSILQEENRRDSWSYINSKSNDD
T2 sequence (P05556 21-798 limits assumed, chain 2 of 2): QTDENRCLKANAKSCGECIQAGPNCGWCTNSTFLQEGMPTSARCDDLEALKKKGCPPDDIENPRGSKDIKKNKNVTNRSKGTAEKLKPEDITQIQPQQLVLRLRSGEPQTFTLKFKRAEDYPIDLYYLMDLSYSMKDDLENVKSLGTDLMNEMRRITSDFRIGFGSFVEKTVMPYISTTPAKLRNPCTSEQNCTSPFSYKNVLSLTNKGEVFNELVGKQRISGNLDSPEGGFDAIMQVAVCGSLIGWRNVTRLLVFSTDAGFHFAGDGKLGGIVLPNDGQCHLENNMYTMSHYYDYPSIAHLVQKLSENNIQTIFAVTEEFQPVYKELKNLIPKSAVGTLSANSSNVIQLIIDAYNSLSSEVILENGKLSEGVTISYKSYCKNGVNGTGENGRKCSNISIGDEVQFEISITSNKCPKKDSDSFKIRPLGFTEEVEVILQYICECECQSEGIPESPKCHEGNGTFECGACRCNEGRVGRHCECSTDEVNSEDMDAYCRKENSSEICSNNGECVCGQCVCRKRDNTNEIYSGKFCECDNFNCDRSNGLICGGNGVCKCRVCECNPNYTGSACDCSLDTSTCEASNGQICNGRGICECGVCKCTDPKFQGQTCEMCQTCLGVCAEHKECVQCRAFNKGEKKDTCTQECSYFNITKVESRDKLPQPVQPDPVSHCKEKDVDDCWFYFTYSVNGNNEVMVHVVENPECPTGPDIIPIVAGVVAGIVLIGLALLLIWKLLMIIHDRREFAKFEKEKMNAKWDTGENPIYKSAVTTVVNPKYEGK
Method: as §3

## B1
[1]
  binding result: binds

B2: JAM2-Fc: extracellular domain of human JAM2 secreted from Sf21 insect cells as a fusion to mIgG2a (protein)
chain: FSAPKDQQVVTAVEYQEAILACKTPKKTVSSRLEWKKLGRSVSFVYYQQTLQGDFKNRAEMIDFNIRIKNVTRSDAGKYRCEVSAPSEQGQNLEEDTVTLEVLVAPAVPSCEVPSSALSGTVVELRCQDKEGNPAPEYTWFKDGIRLLENPRLGSQSTNSSYTMNTKTGTLQFNTVSKLDTGEYSCEARNSVGYRRCPGKRMQVDDLNIS
modifications: left off: a dimerising Fc or GST
notes: extracellular domain of human JAM2 secreted from Sf21 insect cells as a fusion to mIgG2a
HPB-ALL
  capture of HPB-ALL cells: quite efficiently
HSB cells; binding buffer: TBS plus 1 mM calcium, magnesium and manganese, FIG. 7
  capture of HSB cells: quite efficiently
K562 cell lines
  binding to K562 cells: non-existent

B3: N-terminal Ig-fold of JAM2: first Ig domain of JAM2 synthesized as a secreted protein in insect cells (protein)
chain: FSAPKDQQVVTAVEYQEAILACKTPKKTVSSRLEWKKLGRSVSFVYYQQTLQGDFKNRAEMIDFNIRIKNVTRSDAGKYRCEVSAPSEQGQNLEEDTVTLEV
modifications: left off: a dimerising Fc or GST
notes: first Ig domain of JAM2 synthesized as a secreted protein in insect cells
HSB cells; TBS and TBS+Mn, FIG. 10
  adhesion to HSB cells: capable of adhering to HSB cells

B4: human JAM1-Fc (Fc fusion, UniProt Q9Y624 28-238, looked up)
chain: SVTVHSSEPEVRIPENNPVKLSCAYSGFSSPRVEWKFDQGDTTRLVCYNNKITASYEDRVTFLPTGITFKSVTREDTGTYTCMVSEEGGNSYGEVKVKLIVLVPPSKPTVNIPSSATIGNRAVLTCSEQDGSPPSEYTWFKDGIVMPTNPKSTRAFSNSSYVLNPTTGELVFDPLSASDTGEYSCEARNGYGTPMTSNAVRMEAVERNVGV
notes: not shown: Fc part not described for this construct
[2]
  binding result: no binding

B5: human JAM1-Fc: Fc fusion of JAM1, the human homologue of mouse JAM (protein)
chain: SVTVHSSEPEVRIPENNPVKLSCAYSGFSSPRVEWKFDQGDTTRLVCYNNKITASYEDRVTFLPTGITFKSVTREDTGTYTCMVSEEGGNSYGEVKVKLIVLVPPSKPTVNIPSSATIGNRAVLTCSEQDGSPPSEYTWFKDGIVMPTNPKSTRAFSNSSYVLNPTTGELVFDPLSASDTGEYSCEARNGYGTPMTSNAVRMEAVERNVGV
modifications: left off: a dimerising Fc or GST
notes: Fc fusion of JAM1, the human homologue of mouse JAM
HSB cells
  binding of calcein loaded HSB cells: unable to bind

B6: soluble JAM3 (JAM3 ectodomain from a JAM3-Fc fusion digested with thrombin and purified to remove the Fc) (receptor, human, UniProt Q9BX67 32-241, looked up)
chain: VNLKSSNRTPVVQEFESVELSCIITDSQTSDPRIEWKKIQDEQTTYVFFDNKIQGDLAGRAEILGKTSLKIWNVTRRDSALYRCEVVARNDRKEIDEIVIELTVQVKPVTPVCRVPKAVPVGKMATLHCQESEGHPRPHYSWYRNDVPLPTDSRANPRFRNSSFHLNSETGTLVFTAVHKDDSGQYYCIASNDAGSARCEEQEMEVYDLN
notes: extracellular domain; It was added at a 10-fold molar ratio; also called soluble JAM3 ectodomain
[3]
  binding result: binds

B7: TBC 772, cyclic hexapeptide (C*WLDVC*), antagonist of alpha 4 integrins (peptide)
peptide: CWLDVC
modifications: bridge 1-6; also: cyclic hexapeptide, bond type between C* residues not given here
[4]
  IC50: ~60 nM
